# Measured values taken from publication PMC2976518.
# Values joined by “and” are separate entries in the source; they are usually repeats but may differ in a detail not shown here. Equal entries are not always repeated. Where two headings read alike, the source gives them in different places.
# Key:
# [1] = target: S9A/R54E/Q115R Sin (highly activated Sin mutant with the active site serine changed) (Staphylococcus aureus (plasmid pI9789)); assay: AUC
# [2] = target: S9A/R54E/Q115R Sin (highly activated Sin mutant with the active site serine changed) (Staphylococcus aureus (plasmid pI9789)); assay: AUC; remark: listed apart in the source
# [3] = target: I100T Sin (mildly activated Sin mutant) (Staphylococcus aureus (plasmid pI9789)); assay: AUC
# [4] = target: I100T Sin (mildly activated Sin mutant) (Staphylococcus aureus (plasmid pI9789)); assay: AUC; remark: listed apart in the source
# Sin I100T = Sin I100T (Staphylococcus aureus (plasmid pI9789), UniProt Q53757 1-202, I100T); assay: AUC sedimentation velocity
# Sin S9A/R54E/Q115R = Sin S9A/R54E/Q115R (Staphylococcus aureus (plasmid pI9789), UniProt Q53757 1-202, S9A;R54E;Q115R); assay: AUC sedimentation velocity and equilibrium
molecule,measurement,setting,value
S9A/R54E/Q115R Sin (highly activated Sin mutant with the active site serine changed) (enzyme),Kd,[1],400 nM
same,stoichiometry N,[1],2 and 4
same,Kd,[2],450 nM
I100T Sin (mildly activated Sin mutant) (enzyme),stoichiometry N,[3],2
same,stoichiometry N,[4],2
52-mer site I dsDNA (AUC) (dsDNA) DNA 1: GCCTAGTTCTTTGTGAAATTTGGGTATACCCTAATCATACAAGCTTGATCTG DNA 2: CAGATCAAGCTTGTATGATTAGGGTATACCCAAATTTCACAAAGAACTAGGC,binding result,Sin I100T,binds
same,binding result,Sin S9A/R54E/Q115R,binds
